Data on 7 molecules can be found in patent US20150165025A1 (ONO PHARMACEUTICAL, published 2015).

What is called Kd is the concentration at which binding is half-saturated. For orientation: koff means the first-order rate constant of dissociation. In general, kon refers to a measure of how fast the partners come together. The EC50 (read off the curve) is the midpoint of the concentration-response curve.

Assay [1] deals with T1, purified recombinant human PD-1 fusion protein (human, UniProt Q15116 25-170).
T1 construct: extracellular domain; Made in CHO cells; amine-coupled to a CM5 chip for Biacore
In words: Biacore SPR; PD-1 fusion protein on CM5 chip, antibody at 267 nM. As to the method: Anti-PD-1 antibodies were characterized for affinities and binding kinetics by Biacore analysis (Biacore AB, Uppsala, Sweden). Purified recombinant human PD-1 fusion protein was covalently linked to a CM5 chip (carboxy methyl dextran coated chip) via primary amines, using standard amine coupling chemistry and kit provided by Biacore. Binding was measured by flowing the antibodies in HBS EP buffer (provided by Biacore AB) at a concentration of 267 nM at a low rate of 50 μl/min. The antigen-antibody association kinetics was followed for 3 minutes and the dissociation kinetics was followed for 7 minutes. The association and dissociation curves were fit to a 1:1 Langmuir binding model using BIAevaluation software (Biacore AB). To minimize the effects of avidity in the estimation of the binding constants, only the initial segment of data corresponding to association and dissociation phases were used for fitting.

The target of assay [2] is T2, CD28 fusion protein (R&D Biosystems) (human, UniProt P10747 19-152). The assay can be described thus: ELISA on CD28 fusion protein, goat anti-human IgG (kappa) HRP. As to the method:
(§1) A comparison of the binding of anti-PD-1 antibodies to CD28 family members was performed by standard ELISA using four different CD28 family members to examine the specificity of binding for PD-1.
(§2) Standard ELISA procedures were performed. The anti-PD-1 human monoclonal antibodies were added at a concentration of 20 μg/ml. Goat-anti-human IgG (kappa chain-specific) polyclonal antibody conjugated with horseradish peroxidase (HRP) was used as secondary antibody.
Background: In an ELISA, binding on a coated surface is turned into a signal by an enzyme label.

Assay [3] addresses T3, ICOS fusion protein (R&D Biosystems) (human, UniProt Q9Y6W8 21-141).
T3 sequence (looked up): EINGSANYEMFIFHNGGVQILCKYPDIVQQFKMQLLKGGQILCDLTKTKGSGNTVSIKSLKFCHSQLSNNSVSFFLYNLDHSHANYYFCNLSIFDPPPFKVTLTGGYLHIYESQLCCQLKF
The assay can be described thus: ELISA on ICOS fusion protein, goat anti-human IgG (kappa) HRP. As to the method:
as §1, §2

In assay [4] the target is T4, CTLA-4 fusion protein (R&D Biosystems) (human, UniProt P16410 37-162).
T4 sequence (looked up): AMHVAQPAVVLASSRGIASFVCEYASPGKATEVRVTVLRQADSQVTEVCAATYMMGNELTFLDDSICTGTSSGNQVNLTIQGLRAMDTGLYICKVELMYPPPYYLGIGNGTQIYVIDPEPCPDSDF
The assay can be described thus: ELISA on CTLA-4 fusion protein, goat anti-human IgG (kappa) HRP. The procedure: as §1, §2

For assay [5], the target named is T5, human PD-1 expressed at the cell surface (human, UniProt Q15116 25-288).
T5 construct: whole, on cells; also called hPD-1; CHO hPD-1 cells
In words: flow cytometry on activated human T cells, FITC-labeled anti-human IgG, MFI. As to the method:
(§3) Activated human T-cells, monkey peripheral blood mononuclear cells (PBMC), and CHO cells transfected with PD-1 were each tested for antibody binding. Human T cells and cynomolgous PBMC were activated by […] to induce PD-1 expression on T cells prior to binding with a human anti-PD-1 monoclonal antibody. […] The cells were washed and binding was detected with a FITC-labeled anti-human IgG Ab. Flow cytometric analyses were performed using a FACScan flow cytometry (Becton Dickinson, San Jose, Calif.).

Assay [6] concerns the target T6, cynomolgus monkey cell surface PD-1 (cynomolgus monkey, UniProt B0LAJ3 25-288).
T6 construct: also called cynomolgous monkey PD-1
The assay can be described thus: flow cytometry on activated cynomolgus monkey PBMC, FITC-labeled anti-human IgG, MFI. As to the method: as §3
Background: Flow cytometry measures light scatter and fluorescence of single cells or particles in a stream.

Assay [7] deals with T5, human PD-1 expressed at the cell surface. In words: flow cytometry on CHO cells transfected with human PD-1, FITC-labeled anti-human IgG, MFI. The procedure:
as §3

Assay [8] shares this target. In words: flow cytometry blocking assay on CHO/hPD-1 cells: antibody first, then FITC-labeled PD-L1 fusion protein as the blocked ligand, MFI. The procedure:
(§4) PD-1 expressing CHO cells were suspended in FACS buffer (PBS with 4% fetal calf serum). […] Flow cytometric analyses were performed using a FACScan flowcytometer (Becton Dickinson, San Jose, Calif.).

The target in assay [9] is T3, ICOS fusion protein (R&D Biosystems). In words: standard ELISA on fusion proteins. As to the method: as §1, §2
The target of assay [10] is T4, CTLA-4 fusion protein (R&D Biosystems). The assay can be described thus: standard ELISA on fusion proteins. The procedure:
as §1, §2

Assay [11] concerns the target T2, CD28 fusion protein (R&D Biosystems). In words: standard ELISA on fusion proteins. The procedure:
as §1, §2

Assay [12] deals with T5, human PD-1 expressed at the cell surface. In words: flow cytometry blocking assay on CHO/PD-1 cells: antibody first, then FITC-labeled PD-L2 fusion protein as the blocked ligand, MFI. The procedure: as §4

Where a chain is given by its changes, count along the chain named.

T6 sequence (B0LAJ3 entry or part of it limits assumed): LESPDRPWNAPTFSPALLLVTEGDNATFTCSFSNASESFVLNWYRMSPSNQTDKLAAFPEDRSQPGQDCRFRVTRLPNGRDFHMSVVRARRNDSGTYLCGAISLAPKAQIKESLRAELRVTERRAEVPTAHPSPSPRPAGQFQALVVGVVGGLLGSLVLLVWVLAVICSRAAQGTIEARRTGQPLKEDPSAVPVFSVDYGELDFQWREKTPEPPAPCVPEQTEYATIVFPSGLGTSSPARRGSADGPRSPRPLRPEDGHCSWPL
T1 sequence (Q15116 25-170): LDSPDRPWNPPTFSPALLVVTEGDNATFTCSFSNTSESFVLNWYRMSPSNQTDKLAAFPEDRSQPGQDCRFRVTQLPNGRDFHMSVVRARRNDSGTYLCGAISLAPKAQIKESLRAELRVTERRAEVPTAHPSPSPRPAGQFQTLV
T5 sequence (Q15116 25-288): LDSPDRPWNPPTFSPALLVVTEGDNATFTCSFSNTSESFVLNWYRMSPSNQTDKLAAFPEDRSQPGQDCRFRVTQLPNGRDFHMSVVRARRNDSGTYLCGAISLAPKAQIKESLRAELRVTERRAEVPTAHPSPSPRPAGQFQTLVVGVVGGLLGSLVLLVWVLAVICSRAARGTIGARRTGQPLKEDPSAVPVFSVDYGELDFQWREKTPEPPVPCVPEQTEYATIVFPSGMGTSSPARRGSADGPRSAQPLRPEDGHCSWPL
T2 sequence (P10747 19-152): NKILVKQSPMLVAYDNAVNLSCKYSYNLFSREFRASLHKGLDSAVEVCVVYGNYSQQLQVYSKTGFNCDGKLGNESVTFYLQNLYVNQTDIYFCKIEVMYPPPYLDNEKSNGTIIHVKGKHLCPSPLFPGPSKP

B1: anti-PD-1 human monoclonal antibody 17D8 (antibody, V domains shown)
VH: QVQLVESGGDVVQPGGSLRLSCAASGVAFSNYGMHWVRQAPGKGLEWVAVIWYDGSNKYYADSVKGRFTISRDNSKNMLYLQMNSLRAEDTAMYYCARNDDYWGQGTLVTVSS
VL: EIVLTQSPATLSLSPGERATLSCRASQSVSSYLAWYQQKPGQAPRLIIYDASNRATGIPARFSGSGSGTDFTLTISSLEPEDFAVYYCQQRSNWPLTFGGGTKVEIK
notes: Fully human IgG with kappa light chain from a hybridoma (HuMab/KM mice)
As to B1, the dissociation constant Kd in assay [1] was 0.16 nM. Also, the koff in assay [1] was 4.5e-05 s⁻¹. Further, the kon in [1] is 256000 M⁻¹ s⁻¹. Besides, the binding result in [2], in [3] and in assay [4] was “no binding (tested: 20 µg/ml)” in each case. Further, the concentration for a half-maximal effect (EC50 (read off the curve)) in [5] is about 2 nM; in assay [6], about 3 nM; in assay [7] it was about 10 nM.

B2: anti-PD-1 human monoclonal antibody 4H1 (antibody, V domains shown)
VH: QVYLVESGGGVVQPGRSLRLSCAASGFTFSNYGMHWVRQAPGKGLEWVALIWYDGSNKYYADSVKGRFTISRDNSKNTLYLQMTSLRVEDTAVYYCASNVDHWGQGTLVTVSS
VL: B1 VL with I47L, R91S, L96R, G100Q
notes: Fully human IgG with kappa light chain from a hybridoma
For the molecule B2, the binding result in assay [2], in [3] and in [4] was “no binding (tested: 20 µg/ml)” each time. Further, the “EC50 (read off the curve)” value is about 0.6 nM in [5], about 0.9 nM in assay [6] and about 3 nM in assay [7]. Further, the “IC50 (read off the curve)” value in assay [8] was about 2 nM.

B3: anti-PD-1 human monoclonal antibody 5C4 (antibody, V domains shown)
VH: QVQLVESGGGVVQPGRSLRLDCKASGITFSNSGMHWVRQAPGKGLEWVAVIWYDGSKRYYADSVKGRFTISRDNSKNTLFLQMNSLRAEDTAVYYCATNDDYWGQGTLVTVSS
VL: B1 VL with I47L, R91S, L96R, G100Q
notes: Fully human IgG with kappa light chain from a hybridoma; also called 5C4-IgG1; 5C4-IgG4
As for B3, the binding result in assay [3] and in assay [4] was “no binding (tested: 20 µg/ml)” in each case. Further, the 50% effective concentration (EC50 (read off the curve)) in assay [6] is about 1 nM.

B4: anti-PD-1 human monoclonal antibody 2D3 (antibody, V domains shown)
VH: QVQLVESGGDVVQPGRSLRLSCAASGLTFTNYGFHWVRQAPGKGLEWVAVIWYDGSKKYYADSVKGRFTISRDNSKNTLYLQMNNLRAEDTAVYYCATGDDYWGQGTLVTVSS
VL: B1 VL with I47L, A51T
notes: as for B2
With B4, in [1], the dissociation constant (Kd) was 1.2 nM. The koff in [1] was 0.000452 s⁻¹. In addition, the kon in assay [1] came out at 377000 M⁻¹ s⁻¹. Also, the binding result in assay [2], in [3] and in assay [4] was “no binding (tested: 20 µg/ml)” in each case. The “EC50 (read off the curve)” value in assay [5] was about 0.7 nM; in [6], about 1 nM.

B5: anti-PD-1 human monoclonal antibody 7D3 (antibody, V domains shown)
VH: B4 VH with D10G, A23T, A24T, L27I, T30S, N31S, I70L, N74D, N85S, A97V
VL: B1 VL with I47L
notes: as for B2
On to B5, for which the binding result in assay [9], in assay [10] and in assay [11] was “no binding (tested: 20 µg/ml)” throughout.

B6: anti-PD-1 human monoclonal antibody 4A11 (antibody, V domains shown)
VH: QLQLQESGPGLVKPSETLSLTCTVSGGSLSRSSFFWGWIRQPPGKGLEWIGSIYYSGSTYYNPSLKSRVTISVDTSKNQFSLKLSSVTAADTAVYYCVRDYDILTGDEDYWGQGTLVTVSS
VL: DIQMTQSPSSLSASVGDRVSITCRASQGISSWLAWYQQKPEKAPKSLIYAASNLRSGVPSRFSGSGSGTDFTLTISSLQPEDFATYYCQQYYSYPRTFGQGTKVEIK
notes: as for B2
Regarding B6, in [1], the dissociation constant (Kd) turned out to be 0.13 nM, the dissociation rate constant (koff) was 9.9e-06 s⁻¹ and the kon amounted to 76000 M⁻¹ s⁻¹. Further, the binding result in assay [2] was “no binding (tested: 20 µg/ml)”. Besides, the binding result in assay [3] is listed as “no binding (tested: 20 µg/ml)”. In addition, the binding result in assay [4] is given as “no binding (tested: 20 µg/ml)”. In addition, the “EC50 (read off the curve)” value in assay [7] was about 10 nM. Besides, in assay [12], the “IC50 (read off the curve)” value was about 8 nM.

B7: anti-PD-1 human monoclonal antibody 5F4 (antibody, V domains shown)
VH: B6 VH with T23S, F34Y, G51A, Y54F, S58E, Y61F, K77R, V98A
VL: B6 VL with S20T, N53S, R55Q
notes: as for B2
In the case of B7, the binding result in [9], in [10] and in [11] was “no binding (tested: 20 µg/ml)” in each case.
